According to patent US6010851A, “Method for producing nucleoside-5'-phosphate ester” (Ajinomoto Co., Inc., priority 1995, dated 2000):

Columns and labels:
[1] = Phosphomonoesterase activity (inosine produced by hydrolysis of 5'-inosinic acid); format: biochemical; conditions: purified Escherichia blattae enzyme
Protocol: The phosphomonoesterase activity was measured under the following condition using 5'-inosinic acid as a substrate. The reaction was performed at 30° C. for 10 minutes in a reaction solution (1 ml) containing 10 μmol/ml of 5'-inosinic acid, 100 μmol/ml of MES/NaOH buffer (pH 6.0), and an enzyme. The reaction was stopped by adding 200 μl of 2 N hydrochloric acid. After that, precipitates were removed by centrifugation. Then, inosine produced by the hydrolytic reaction was quantitatively measured. An amount of enzyme to produce 1 μmol of inosine per 1 minute under this standard reaction condition was defined as 1 unit.
Inosine and 5'-inosinic acid were analyzed under the following condition by means of high-performance liquid chromatography (HPLC).

[2] = Properties of the purified acid phosphatase derived from Escherichia blattae; design: species or system Escherichia blattae JCM 1650
Protocol: A nutrient medium (pH 7.0, 50 ml) containing 1 g/dl of peptone, 0.5 g/dl of yeast extract, and 1 g/dl of sodium chloride was poured into Sakaguchi flasks (500 ml), which was sterilized at 120° C. for 20 minutes. A slant culture of Escherichia blattae JCM 1650 was inoculated to each of the flasks once with a platinum loop, which was cultivated at 30° C. for 16 hours with shaking. Microbial cells were harvested from a culture by centrifugation. The microbial cells (about 3,300 g) were suspended in 100 mM potassium phosphate buffer (1 L, pH 7.0). A ultrasonic treatment was performed at 4° C. for 20 minutes to disrupt the microbial cells. The treated suspension was centrifuged to remove its insoluble fraction. Thus a cell-free extract was prepared.
The purified enzyme had the following properties.

B1: acid phosphatase derived from Escherichia blattae: enzyme purified from cell-free extract of Escherichia blattae JCM 1650; mature protein SEQ ID NO: 11 (protein)
chain: LALVATGNDTTTKPDLYYLKNSEAINSLALLPPPPAVGSIAFLNDQAMYEQGRLLRNTERGKLAAEDANLSSGGVANAFSGAFGSPITEKDAPALHKLLTNMIEDAGDLATRSAKDHYMRIRPFAFYGVSTCNTTEQDKLSKNGSYPSGHTSIGWATALVLAEINPQRQNEILKRGYELGQSRVICGYHWQSDVDAARVVGSAVVATLHTNPAFQQQLQKAKAEFAQHQKK
phosphate ester hydrolytic activity (phosphomonoesterase activity) relative to transphosphorylation activity [1]: not less than 30 times | Optimum temperature [2]: about 35 °C | Optimum pH ([2]; phosphate ester hydrolytic reaction): 6.5 | Optimum pH ([2]; transphosphorylation reaction): 5.2 | Temperature stability ([2]; treatment at pH 7.0 for 30 minutes): up to 40 °C
